The supplement of paper PMC11246515
± gives the standard deviation of the averaged measurements.

Experiment: total protein half-life in vivo (active degradation + dilution); higher = more stable protein
[1] = E. coli NCM3722 delta-clpP delta-lon delta-hslV, growth: N-lim chemostat, doubling time 6 h
[2] = E. coli NCM3722 delta-clpP, growth: N-lim chemostat, doubling time 6 h
[3] = E. coli NCM3722 delta-hslV, growth: N-lim chemostat, doubling time 6 h
[4] = E. coli NCM3722 delta-lon, growth: N-lim chemostat, doubling time 6 h
[5] = E. coli NCM3722 delta-smpB, growth: N-lim chemostat, doubling time 6 h
[6] = wild type E. coli NCM3722, growth: C-lim chemostat, doubling time 6 h
[7] = wild type E. coli NCM3722, growth: C-lim chemostat, doubling time 12 h
[8] = wild type E. coli NCM3722, growth: N-lim chemostat, doubling time 12 h
[9] = wild type E. coli NCM3722, growth: P-lim chemostat, doubling time 6 h
[10] = wild type E. coli NCM3722, growth: P-lim chemostat, doubling time 12 h
[11] = wild type E. coli NCM3722, growth: N-lim chemostat, doubling time 6 h
[12] = wild type E. coli NCM3722, growth: C-lim chemostat, doubling time 3 h

| Sequence | total protein half-life in vivo [1] [h] | total protein half-life in vivo [2] [h] | total protein half-life in vivo [3] [h] | total protein half-life in vivo [4] [h] | total protein half-life in vivo [5] [h] | total protein half-life in vivo [6] [h] | total protein half-life in vivo [7] [h] | total protein half-life in vivo [8] [h] | total protein half-life in vivo [9] [h] | total protein half-life in vivo [10] [h] | total protein half-life in vivo [11] [h] | total protein half-life in vivo [12] [h] |
| --- | --- | --- | --- | --- | --- | --- | --- | --- | --- | --- | --- | --- |
| MKPMHIAMALLSAAMFFVLAGVFMGVQLELDGTKLVVDTASDVRWQWVFIGTAVVFFFQLLRPAFQKGLKSVSGPKFILPAIDGSTVKQKLFLVALLVLAVAWPFMVSRGTVDIATLTMIYIILGLGLNVVVGLSGLLVLGYGGFYAIGAYTFALLNHYYGLGFWTCLPIAGLMAAAAGFLLGFPVLRLRGDYLAIVTLGFGEIVRILLLNNTEITGGPNGISQIPKPTLFGLEFSRTAREGGWDTFSNFFGLKYDPSDRVIFLYLVALLLVVLSLFVINRLLRMPLGRAWEALREDEIACRSLGLSPRRIKLTAFTISAAFAGFAGTLFAARQGFVSPESFTFAESAFVLAIVVLGGMGSQFAVILAAILLVVSRELMRDFNEYSMLMLGGLMVLMMIWRPQGLLPMTRPQLKLKNGAAKGEQA | 5.59 ± 2.4 | 6.22 | 5.84 ± 0.34 | 5.83 ± 1.7 | 5.92 ± 1.1 | 5.79 ± 0.64 | 10.7 ± 1.2 | 12.2 | 6.09 ± 0.58 | 10.7 ± 0.3 | – | – |
| MLWGFVFVSFISKELALGQSEYISWVKCTSWLSNFVNLRGLRQPDGRPLYEYHATNDEYTQLTQLLRAVGQSQSNICNRDFAACFVLFCSEWYRRDYERQCGWTWDPIYKKIGISFTATELGTIVPKGMEDYWLRPIRFYESERRNFLGTLFSEGGLPFRLLKESDSRFLAVFSRILGQYEQAKQSGFSALSLARAVIEKSALPTVFSEDTSVELISHMADNLNSLVLTHNLINHKEPVQQLEKVHPTWRSEFPIPLDDETGTHFLNGLLCAASVEAKPRLQKNKSTRCQFYWSEKHPDELRVIVSLPDEVSFPVTSEPSTTRFELAICEDGEEVSGLGPAYASLENRQATVRLRKSEVRFGRQNPSAGLSLVARAGGMIVGSIKLDDSEIAIGEVPLTFIVDADQWLLQGQASCSVRSSDVLIVLPRDNSNVAGFDGQSRAVNVLGLKALPVKGCQDVTVTANETYRIRTGREQISIGRFALNGKRASWVCHPDETFIGVPKVISTLPDIQSIDVTRYTC | – | – | – | – | – | – | – | – | – | – | 5.44 | – |
| MADYQGKNVVIIGLGLTGLSCVDFFLARGVTPRVMDTRMTPPGLDKLPEAVERHTGSLNDEWLMAADLIVASPGIALAHPSLSAAADAGIEIVGDIELFCREAQAPIVAITGSNGKSTVTTLVGEMAKAAGVNVGVGGNIGLPALMLLDDECELYVLELSSFQLETTSSLQAVAATILNVTEDHMDRYPFGLQQYRAAKLRIYENAKVCVVNADDALTMPIRGADERCVSFGVNMGDYHLNHQQGETWLRVKGEKVLNVKEMKLSGQHNYTNALAALALADAAGLPRASSLKALTTFTGLPHRFEVVLEHNGVRWINDSKATNVGSTEAALNGLHVDGTLHLLLGGDGKSADFSPLARYLNGDNVRLYCFGRDGAQLAALRPEVAEQTETMEQAMRLLAPRVQPGDMVLLSPACASLDQFKNFEQRGNEFARLAKELG | 5.112 ± 0.021 | 4.445 ± 0.041 | 4.9241 ± 0.00076 | 5.5 ± 0.35 | 4.73 ± 0.097 | 5.38 ± 0.69 | 12.18 ± 0.043 | 9.03 ± 0.63 | 5.815 ± 0.041 | – | 4.57 ± 0.075 | – |
| MAYYSIGDVAERCGINPVTLRAWQRRYGLLKPQRSEGGHRLFDEEDIQRIEEIKRWISNGVPVGKVKALLETTSQDTEDDWSRLQEEMMSILRMANPAKLRARIISLGREYPVDQLINHVYLPVRQRLVLDHNTSRIMSSMFDGALIEYAATSLFEMRRKPGKEAILMAWNVEERARLWLEAWRLSLSGWHISVLADPIESPRPELFPTQTLIVWTGMAPTRRQNELLQHWGEQGYKVIFHAP | 4.63 ± 0.56 | 3.95 ± 2.5 | 1.93 | – | 1.79 ± 0.14 | 3.02 ± 0.39 | 4.42 ± 0.35 | 2.72 ± 0.041 | 1.39 ± 0.094 | 5.43 | 2 ± 0.16 | 2.13 ± 0.29 |
| MNKTITALAIMMASFAANASVLPETPVPFKSGTGAIDNDTVYIGLGSAGTAWYKLDTQAKDKKWTALAAFPGGPRDQATSAFIDGNLYVFGGIGKNSEGLTQVFNDVHKYNPKTNSWVKLMSHAPMGMAGHVTFVHNGKAYVTGGVNQNIFNGYFEDLNEAGKDSTAIDKINAHYFDKKAEDYFFNKFLLSFDPSTQQWSYAGESPWYGTAGAAVVNKGDKTWLINGEAKPGLRTDAVFELDFTGNNLKWNKLAPVSSPDGVAGGFAGISNDSLIFAGGAGFKGSRENYQNGKNYAHEGLKKSYSTDIHLWHNGKWDKSGELSQGRAYGVSLPWNNSLLIIGGETAGGKAVTDSVLITVKDNKVTVQN | 5.85 ± 0.22 | – | 5.99 ± 0.77 | 6.24 ± 0.61 | 6.27 ± 1.1 | 6.33 ± 0.044 | 12.6 ± 1.2 | 11.5 ± 1.4 | 5.97 ± 0.41 | 13.9 ± 1.4 | 6.32 ± 0.1 | 3.12 ± 0.2 |
| MSTIEERVKKIIGEQLGVKQEEVTNNASFVEDLGADSLDTVELVMALEEEFDTEIPDEEAEKITTVQAAIDYINGHQA [P0A6A8] | 7.12 ± 0.32 | 5.957 ± 0.032 | 5.79 ± 0.28 | 7.19 ± 0.17 | 4.78 ± 1.6 | 4.95 ± 1.3 | 8.88 ± 0.96 | – | 5 ± 1.2 | 10.8 ± 0.47 | 4 ± 0.13 | 3.14 ± 0.069 |
| MKGRWVKYLLMGTVVAMLAACSSKPTDRGQQYKDGKFTQPFSLVNQPDAVGAPINAGDFAEQINHIRNSSPRLYGNQSNVYNAVQEWLRAGGDTRNMRQFGIDAWQMEGADNYGNVQFTGYYTPVIQARHTRQGEFQYPIYRMPPKRGRLPSRAEIYAGALSDKYILAYSNSLMDNFIMDVQGSGYIDFGDGSPLNFFSYAGKNGHAYRSIGKVLIDRGEVKKEDMSMQAIRHWGETHSEAEVRELLEQNPSFVFFKPQSFAPVKGASAVPLVGRASVASDRSIIPPGTTLLAEVPLLDNNGKFNGQYELRLMVALDVGGAIKGQHFDIYQGIGPEAGHRAGWYNHYGRVWVLKTAPGAGNVFSG [P0A935] | 5.19 ± 1.9 | 4.22 ± 0.17 | 3.87 ± 0.69 | 4.05 ± 0.22 | 3 ± 0.41 | 2.8 ± 0.13 | 4.23 ± 0.38 | 3.79 ± 0.35 | 3.7 ± 0.37 | 6.57 ± 0.27 | 2.99 ± 0.4 | 1.877 ± 0.013 |
| MMNTEGNNGNKPLGLWNVVSIGIGAMVGAGIFALLGQAALLMEASTWVAFAFGGIVAMFSGYAYARLGASYPSNGGIIDFFRRGLGNGVFSLALSLLYLLTLAVSIAMVARAFGAYAVQFLHEGSQEEHLILLYALGIIAVMTLFNSLSNHAVGRLEVILVGIKMMILLLLIIAGVWSLQPAHISVSAPPSSGAFFSCIGITFLAYAGFGMMANAADKVKDPQVIMPRAFLVAIGVTTLLYISLALVLLSDVSALELEKYADTAVAQAASPLLGHVGYVIVVIGALLATASAINANLFAVFNIMDNMGSERELPKLMNKSLWRQSTWGNIIVVVLIMLMTAALNLGSLASVASATFLICYLAVFVVAIRLRHDIHASLPILIVGTLVMLLVIVGFIYSLWSQGSRALIWIIGSLLLSLIVAMVMKRNKTV | – | 6.11 | – | – | – | – | – | – | – | – | – | – |
| MWLLDQWAERHIAEAQAKGEFDNLAGSGEPLILDDDSHVPPELRAGYRLLKNAGCLPPELEQRREAIQLLDILKGIRHDDPQYQEVSRRLSLLELKLRQAGLSTDFLRGDYADKLLDKINDN | – | – | 6.32 | – | – | – | – | 12.3 | 6.15 | – | 5.56 | 3.06 |
| MSHQHTTQTSGQGMLERVFKLREHGTTARTEVIAGFTTFLTMVYIVFVNPQILGVAGMDTSAVFVTTCLIAAFGSIMMGLFANLPVALAPAMGLNAFFAFVVVQAMGLPWQVGMGAIFWGAIGLLLLTIFRVRYWMIANIPVSLRVGITSGIGLFIGMMGLKNAGVIVANPETLVSIGNLTSHSVLLGILGFFIIAILASRNIHAAVLVSIVVTTLLGWMLGDVHYNGIVSAPPSVMTVVGHVDLAGSFNLGLAGVIFSFMLVNLFDSSGTLIGVTDKAGLADEKGKFPRMKQALYVDSISSVTGSFIGTSSVTAYIESSSGVSVGGRTGLTAVVVGLLFLLVIFLSPLAGMVPGYAAAGALIYVGVLMTSSLARVNWQDLTESVPAFITAVMMPFSFSITEGIALGFISYCVMKIGTGRLRDLSPCVIIVALLFILKIVFIDAH | 6.67 ± 0.81 | 6.107 ± 0.041 | 5.86 ± 0.14 | 5.93 | 5.32 ± 0.85 | 5.56 ± 0.18 | 12.7 ± 2.2 | – | 5.99 ± 0.52 | 11.2 ± 0.99 | 6.02 ± 0.079 | – |
